The series deals with plasminogen.

As for “human low molecular weight urokinase-plasminogen activator (LMW-u-PA)”, the “amidolytic activity, chromogenic substrates Chromozyme U and S-2251, absorbance at 405 nm” value is given as “Cells transfected with pLMW-u-PA showed much higher levels of u-PA activity compared to cells transfected with pSPUC1A”.

(Values after patent publication US20090305961.)
